From patent US20260098059A1 (ENDOMET BIOSCIENCES, published 2026)
Values joined by “and” are separate entries in the source; they are usually repeats but may differ in a detail not shown here. Equal entries are not always repeated. *1 amine or outer side, *2 acyl side, *3 side chain or, on linkers, in order; H or OH if unused. Primed or numbered codes have the meaning given here. [ ]: non-standard residue; d: D form. Cys(Me) = CSC[C@H](N[*:1])C(=O)[*:2]; Bz′ = not defined here; Ppa = not defined here; Sar = CNCC(=O)O

T1: β-catenin (UniProt P35222 134-665, limits assumed, biotinylated in the SPR and plate assays)
T1 construct: also called beta catenin; biotinylated β-catenin
T1 sequence (looked up): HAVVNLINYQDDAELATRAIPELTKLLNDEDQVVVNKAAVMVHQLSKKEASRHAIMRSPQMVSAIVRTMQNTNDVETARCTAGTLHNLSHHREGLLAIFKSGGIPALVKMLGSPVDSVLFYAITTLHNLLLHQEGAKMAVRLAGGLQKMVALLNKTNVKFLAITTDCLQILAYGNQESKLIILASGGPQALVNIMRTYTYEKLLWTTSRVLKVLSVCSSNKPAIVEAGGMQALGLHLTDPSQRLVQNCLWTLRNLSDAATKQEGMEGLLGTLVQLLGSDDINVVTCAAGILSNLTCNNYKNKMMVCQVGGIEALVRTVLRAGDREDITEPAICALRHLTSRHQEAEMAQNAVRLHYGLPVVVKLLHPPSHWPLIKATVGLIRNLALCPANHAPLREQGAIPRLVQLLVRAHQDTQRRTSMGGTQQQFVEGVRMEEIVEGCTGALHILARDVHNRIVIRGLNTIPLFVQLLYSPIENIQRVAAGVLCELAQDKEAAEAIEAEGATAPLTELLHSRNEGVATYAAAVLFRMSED


Key:
β-catenin [1] = biological target: T1, β-catenin; assay: competitive FP
Procedure, shortened: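 Competitive fluorescence polarization with inhibitor peptide serially diluted from 10 nM to 30 uM; polarization read at 470 nm excitation, 520 nm emission. Experiments performed three times.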

β-catenin [2] = biological target: T1, β-catenin; assay: cell-based or functional assay

Row | Kd (β-catenin [1]) | Wnt Reporter EC50 (β-catenin [2]) | Binder
1 | ≤ 400 nM | ≤ 7500 nM | MWGLISFWG (HELM PEPTIDE1{[ac].M.W.[O=C([C@@H](N[*:1])C1CCCCC1)[*:2]].L.I.S.F.W.G}$$$$V2.0; SMILES CC[C@H](C)[C@H](NC(=O)[C@H](CC(C)C)NC(=O)[C@@H](NC(=O)[C@H](Cc1c[nH]c2ccccc12)NC(=O)[C@H](CCSC)NC(C)=O)C1CCCCC1)C(=O)N[C@@H](CO)C(=O)N[C@@H](Cc1ccccc1)C(=O)N[C@@H](Cc1c[nH]c2ccccc12)C(=O)NCC(=O)O, also called Hit 1) [SEQ ID NO: 217]
2 | ≤ 400 nM | ≤ 7500 nM | {Bz′}-MWILISFWG-OH [SEQ ID NO: 223]
3 | > 400 nM and ≤ 1000 nM | ≤ 7500 nM | MWILISFWG (HELM PEPTIDE1{[CC(C)(C)C(=O)[*:2]].M.W.I.L.I.S.F.W.G}$$$$V2.0; SMILES CC[C@H](C)[C@H](NC(=O)[C@H](CC(C)C)NC(=O)[C@@H](NC(=O)[C@H](Cc1c[nH]c2ccccc12)NC(=O)[C@H](CCSC)NC(=O)C(C)(C)C)[C@@H](C)CC)C(=O)N[C@@H](CO)C(=O)N[C@@H](Cc1ccccc1)C(=O)N[C@@H](Cc1c[nH]c2ccccc12)C(=O)NCC(=O)O) [SEQ ID NO: 225]
4 | ≤ 400 nM | ≤ 7500 nM | Ac-MWILISFW[Sar]-OH [SEQ ID NO: 221]
5 | ≤ 400 nM | ≤ 7500 nM | Ac-MWLLISFWG-OH [SEQ ID NO: 218]
6 | ≤ 400 nM | ≤ 7500 nM | Ppa-MWILISFWG-OH (reading uncertain; also: printed as Ppa-MWILISFWG-COOH, also called Hit 2) [SEQ ID NO: 224]

Second part, the binder before the results:

Row | Binder | Kd (β-catenin [1]) | Wnt Reporter EC50 (β-catenin [2])
7 | KWILISFWE (HELM PEPTIDE1{K.W.I.L.I.S.F.W.E}$PEPTIDE1,PEPTIDE1,1:R3-9:R3$$$V2.0; SMILES CC[C@H](C)[C@@H]1NC(=O)[C@H](CC(C)C)NC(=O)[C@H]([C@@H](C)CC)NC(=O)[C@H](Cc2c[nH]c3ccccc23)NC(=O)[C@@H](N)CCCCNC(=O)CC[C@@H](C(=O)O)NC(=O)[C@H](Cc2c[nH]c3ccccc23)NC(=O)[C@H](Cc2ccccc2)NC(=O)[C@H](CO)NC1=O) [SEQ ID NO: 182] | > 400 nM and ≤ 1000 nM | > 22500 nM and ≤ 30000 nM
8 | H-MWFLI[Cys(Me)]FWG-OH [SEQ ID NO: 214] | > 400 nM and ≤ 1000 nM | ≤ 7500 nM
9 | H-AWFLISFWG-OH [SEQ ID NO: 209] | > 400 nM and ≤ 1000 nM | ≤ 7500 nM
10 | KWILISAWE (HELM PEPTIDE1{[ac].K.W.I.L.I.S.A.W.E}$PEPTIDE1,PEPTIDE1,2:R3-10:R3$$$V2.0; SMILES CC[C@H](C)[C@@H]1NC(=O)[C@H](CC(C)C)NC(=O)[C@H]([C@@H](C)CC)NC(=O)[C@H](Cc2c[nH]c3ccccc23)NC(=O)[C@@H](NC(C)=O)CCCCNC(=O)CC[C@@H](C(=O)O)NC(=O)[C@H](Cc2c[nH]c3ccccc23)NC(=O)[C@H](C)NC(=O)[C@H](CO)NC1=O) [SEQ ID NO: 188] | > 10000 nM and ≤ 30000 nM | ≤ 7500 nM
11 | KWFLISFWE (HELM PEPTIDE1{[ac].K.W.F.L.I.S.F.W.E}$PEPTIDE1,PEPTIDE1,2:R3-10:R3$$$V2.0; SMILES CC[C@H](C)[C@@H]1NC(=O)[C@H](CC(C)C)NC(=O)[C@H](Cc2ccccc2)NC(=O)[C@H](Cc2c[nH]c3ccccc23)NC(=O)[C@@H](NC(C)=O)CCCCNC(=O)CC[C@@H](C(=O)O)NC(=O)[C@H](Cc2c[nH]c3ccccc23)NC(=O)[C@H](Cc2ccccc2)NC(=O)[C@H](CO)NC1=O) [SEQ ID NO: 199] | > 400 nM and ≤ 1000 nM | ≤ 7500 nM
12 | KWFLICAWD (cyclo-H2N-K(G*)WFLICAWD*-COOH) [SEQ ID NO: 207] | > 400 nM and ≤ 1000 nM | ≤ 7500 nM
13 | MWALISFWG (HELM PEPTIDE1{[ac].M.W.[Cha].L.I.S.F.W.G}$$$$V2.0; SMILES CC[C@H](C)[C@H](NC(=O)[C@H](CC(C)C)NC(=O)[C@H](CC1CCCCC1)NC(=O)[C@H](Cc1c[nH]c2ccccc12)NC(=O)[C@H](CCSC)NC(C)=O)C(=O)N[C@@H](CO)C(=O)N[C@@H](Cc1ccccc1)C(=O)N[C@@H](Cc1c[nH]c2ccccc12)C(=O)NCC(=O)O) [SEQ ID NO: 216] | > 400 nM and ≤ 1000 nM | ≤ 7500 nM
14 | H-MWFLIAAWG-OH [SEQ ID NO: 212] | > 400 nM and ≤ 1000 nM | ≤ 7500 nM
15 | Ac-MWFLICFWG-OH [SEQ ID NO: 198] | > 400 nM and ≤ 1000 nM | ≤ 7500 nM
16 | KWGLISAWD (HELM PEPTIDE1{K.W.[O=C([C@@H](N[*:1])C1CCCCC1)[*:2]].L.I.S.A.W.D}$PEPTIDE1,PEPTIDE1,1:R3-9:R3$$$V2.0; SMILES CC[C@H](C)[C@@H]1NC(=O)[C@H](CC(C)C)NC(=O)[C@H](C2CCCCC2)NC(=O)[C@H](Cc2c[nH]c3ccccc23)NC(=O)[C@@H](N)CCCCNC(=O)C[C@@H](C(=O)O)NC(=O)[C@H](Cc2c[nH]c3ccccc23)NC(=O)[C@H](C)NC(=O)[C@H](CO)NC1=O) [SEQ ID NO: 204] | > 400 nM and ≤ 1000 nM | ≤ 7500 nM
17 | KWFLICFWE (HELM PEPTIDE1{[ac].K.W.F.L.I.C.F.W.E}$PEPTIDE1,PEPTIDE1,2:R3-10:R3$$$V2.0; SMILES CC[C@H](C)[C@@H]1NC(=O)[C@H](CC(C)C)NC(=O)[C@H](Cc2ccccc2)NC(=O)[C@H](Cc2c[nH]c3ccccc23)NC(=O)[C@@H](NC(C)=O)CCCCNC(=O)CC[C@@H](C(=O)O)NC(=O)[C@H](Cc2c[nH]c3ccccc23)NC(=O)[C@H](Cc2ccccc2)NC(=O)[C@H](CS)NC1=O) [SEQ ID NO: 185] | ≤ 400 nM | > 22500 nM and ≤ 30000 nM
18 | KWILISAWE (HELM PEPTIDE1{K.W.I.L.I.S.A.W.E}$PEPTIDE1,PEPTIDE1,1:R3-9:R3$$$V2.0; SMILES CC[C@H](C)[C@@H]1NC(=O)[C@H](CC(C)C)NC(=O)[C@H]([C@@H](C)CC)NC(=O)[C@H](Cc2c[nH]c3ccccc23)NC(=O)[C@@H](N)CCCCNC(=O)CC[C@@H](C(=O)O)NC(=O)[C@H](Cc2c[nH]c3ccccc23)NC(=O)[C@H](C)NC(=O)[C@H](CO)NC1=O) [SEQ ID NO: 184] | > 10000 nM and ≤ 30000 nM | ≤ 7500 nM
19 | MWFLICAWD (HELM PEPTIDE1{[O=C(CCCN[*:1])[*:2]].M.W.F.L.I.C.A.W.D}$PEPTIDE1,PEPTIDE1,1:R1-10:R3$$$V2.0; SMILES CC[C@H](C)[C@@H]1NC(=O)[C@H](CC(C)C)NC(=O)[C@H](Cc2ccccc2)NC(=O)[C@H](Cc2c[nH]c3ccccc23)NC(=O)[C@H](CCSC)NC(=O)CCCNC(=O)C[C@@H](C(=O)O)NC(=O)[C@H](Cc2c[nH]c3ccccc23)NC(=O)[C@H](C)NC(=O)[C@H](CS)NC1=O) [SEQ ID NO: 191] | > 400 nM and ≤ 1000 nM | > 7500 nM and ≤ 15000 nM
